Positions count from the first letter of the chain named.
Key:
[1] = target: T1, Asialofetuin (fetuin lacking sialic acid), biotinylated (bovine, UniProt P12763 19-359); assay: BLI; conditions: both partners purified
T1 construct: source: bought: Sigma-Aldrich
T1 sequence: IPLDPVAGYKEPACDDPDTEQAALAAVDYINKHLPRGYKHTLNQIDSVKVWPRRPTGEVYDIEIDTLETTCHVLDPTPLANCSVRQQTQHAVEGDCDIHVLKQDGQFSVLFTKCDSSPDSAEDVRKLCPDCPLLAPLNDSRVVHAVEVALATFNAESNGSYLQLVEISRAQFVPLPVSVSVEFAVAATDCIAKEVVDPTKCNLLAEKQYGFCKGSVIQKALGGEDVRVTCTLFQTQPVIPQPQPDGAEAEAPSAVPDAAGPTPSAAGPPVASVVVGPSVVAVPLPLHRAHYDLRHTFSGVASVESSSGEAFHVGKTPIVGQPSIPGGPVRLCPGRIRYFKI

[2] = target: T2, Fetuin (bovine serum glycoprotein), biotinylated (bovine, UniProt P12763 19-359); assay: BLI; conditions: both partners purified
T2 construct: source: bought: Sigma-Aldrich
T2 sequence: T1 sequence

B1: S2(PtxB1)S4his recombinant dimer of pertussis toxin subunits S2 (PtxB1 form) and S4 (complex)
chain 1: STPGIVIPPQEQITQHGGPYGRCANKTRALTVAELRGSGDLQEYLRHVTRGWSIFALYDGTYLGGEYGGVIKDGTPGGAFDLKTTFCIMTTRNTGQPATDHYYSNVTATRLLSSTNSRLCAVFVRSGQPVIGACTSPYDGKYWSMYSRLRKMLYLIYVAGISVRVHVSKEEQYYDYEDATFETYALTGISICNPGSSLC
chain 2: DVPYVLVKTNMVVTSVAMKPYEVTPTRMLVCGIAAKLGAAASSPDAHVPFCFGKDLKRPGSSPMEVMLRAVFMQQRPLRMFLGPKQLTFEGKPALELIRMVECSGKQDCP
B1: binds [1]; binds [2].

B2: S2(PtxB2)S4his recombinant dimer of pertussis toxin subunits S2 (PtxB2 form) and S4 (complex)
chain 1: B1 chain 1 with G18S
chain 2: B1 chain 2
B2: binds [1]; binds [2].

B3: S3S4his recombinant dimer of pertussis toxin subunits S3 and S4 (complex)
chain 1: VAPGIVIPPKALFTQQGGAYGRCPNGTRALTVAELRGNAELQTYLRQITPGWSIYGLYDGTYLGQAYGGIIKDAPPGAGFIYRETFCITTIYKTGQPAADHYYSKVTATRLLASTNSRLCAVFVRDGQSVIGACASPYEGRYRDMYDALRRLLYMIYMSGLAVRVHVSKEEQYYDYEDATFQTYALTGISLCNPAASIC
chain 2: B1 chain 2
B3: binds [1]; binds [2].

— article PMC4573519 (PLoS ONE, 2015)
